Measurements taken from paper doi:10.1101/589580.

Biological target: T1, endogenous ZO1 with N-terminal mNeonGreen (CRISPR knock-in, MDCK-II) (dog (endogenous in MDCK-II)), O97758
T1 chain: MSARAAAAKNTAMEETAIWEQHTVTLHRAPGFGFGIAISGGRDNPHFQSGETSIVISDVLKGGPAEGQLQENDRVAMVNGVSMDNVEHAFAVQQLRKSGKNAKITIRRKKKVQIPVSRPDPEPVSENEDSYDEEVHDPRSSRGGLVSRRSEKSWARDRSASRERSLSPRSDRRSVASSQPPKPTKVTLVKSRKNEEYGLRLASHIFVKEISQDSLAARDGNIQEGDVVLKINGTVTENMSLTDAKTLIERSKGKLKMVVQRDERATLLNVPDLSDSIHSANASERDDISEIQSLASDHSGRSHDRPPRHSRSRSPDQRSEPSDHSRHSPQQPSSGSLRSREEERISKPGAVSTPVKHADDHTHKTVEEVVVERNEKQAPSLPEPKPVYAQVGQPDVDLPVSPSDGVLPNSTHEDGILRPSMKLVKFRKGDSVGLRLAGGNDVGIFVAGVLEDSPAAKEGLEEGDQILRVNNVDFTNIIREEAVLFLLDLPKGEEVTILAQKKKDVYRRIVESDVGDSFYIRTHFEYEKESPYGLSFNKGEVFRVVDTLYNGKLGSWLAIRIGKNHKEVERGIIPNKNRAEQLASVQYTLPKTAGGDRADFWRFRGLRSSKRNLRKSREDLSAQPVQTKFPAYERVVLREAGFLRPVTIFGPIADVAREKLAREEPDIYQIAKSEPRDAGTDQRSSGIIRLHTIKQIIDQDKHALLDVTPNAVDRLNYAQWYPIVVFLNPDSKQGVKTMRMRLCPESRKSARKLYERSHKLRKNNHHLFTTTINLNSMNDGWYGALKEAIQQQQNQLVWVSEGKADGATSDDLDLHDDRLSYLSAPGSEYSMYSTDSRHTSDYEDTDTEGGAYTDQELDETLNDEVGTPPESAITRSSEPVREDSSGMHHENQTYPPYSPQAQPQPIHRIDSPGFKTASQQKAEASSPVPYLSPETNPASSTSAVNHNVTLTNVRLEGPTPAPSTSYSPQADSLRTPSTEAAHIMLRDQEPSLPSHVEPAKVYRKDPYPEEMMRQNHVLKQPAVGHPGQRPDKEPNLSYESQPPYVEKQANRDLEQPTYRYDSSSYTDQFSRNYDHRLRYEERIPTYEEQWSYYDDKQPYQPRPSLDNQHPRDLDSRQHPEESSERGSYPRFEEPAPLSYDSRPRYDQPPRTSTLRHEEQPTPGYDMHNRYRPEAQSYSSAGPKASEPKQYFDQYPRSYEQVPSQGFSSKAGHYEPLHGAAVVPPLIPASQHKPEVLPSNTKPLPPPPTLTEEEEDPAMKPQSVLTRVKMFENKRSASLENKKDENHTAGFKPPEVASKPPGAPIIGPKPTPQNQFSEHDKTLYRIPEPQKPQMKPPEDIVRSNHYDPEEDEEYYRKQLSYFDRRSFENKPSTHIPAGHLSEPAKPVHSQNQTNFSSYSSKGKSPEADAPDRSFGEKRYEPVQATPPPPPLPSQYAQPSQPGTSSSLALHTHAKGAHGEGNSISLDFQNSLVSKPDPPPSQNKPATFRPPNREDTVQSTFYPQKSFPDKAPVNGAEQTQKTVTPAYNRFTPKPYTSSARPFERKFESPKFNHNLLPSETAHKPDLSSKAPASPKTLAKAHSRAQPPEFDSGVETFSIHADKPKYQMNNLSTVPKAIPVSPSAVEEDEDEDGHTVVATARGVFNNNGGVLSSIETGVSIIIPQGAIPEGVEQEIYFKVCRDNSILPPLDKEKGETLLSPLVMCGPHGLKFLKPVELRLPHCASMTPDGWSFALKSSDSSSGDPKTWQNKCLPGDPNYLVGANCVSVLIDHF
Test: FCS molecular brightness
Conditions: remark: other sources report otherwise

stoichiometry N: 5
B1: endogenous ZO1 with N-terminal mNeonGreen (CRISPR knock-in, MDCK-II), O97758 1-1769 (natural protein)
chain: T1 chain
